Assay results from paper PMC7549910.

What was measured:
[1] = target: human factor H (human) (UniProt P08603)
[2] = target: elongation factor Tu (EF-Tu) of M. hyopneumoniae strain 168, endogenous (M. hyopneumoniae (endogenous in strain 168))
[3] = target: human factor H (human) (UniProt P08603); assay: SPR; BIAcore X100 Plus; factor H amine-coupled to a CM5 chip (712 RU); recombinant EF-Tu 0-14 uM as analyte in HBS-EP (10 mM HEPES, 150 mM NaCl, 3 mM EDTA, 0.05% P20), 30 uL/min, 180 s, 20°C

human factor H (human), sequence (P08603 19-1231): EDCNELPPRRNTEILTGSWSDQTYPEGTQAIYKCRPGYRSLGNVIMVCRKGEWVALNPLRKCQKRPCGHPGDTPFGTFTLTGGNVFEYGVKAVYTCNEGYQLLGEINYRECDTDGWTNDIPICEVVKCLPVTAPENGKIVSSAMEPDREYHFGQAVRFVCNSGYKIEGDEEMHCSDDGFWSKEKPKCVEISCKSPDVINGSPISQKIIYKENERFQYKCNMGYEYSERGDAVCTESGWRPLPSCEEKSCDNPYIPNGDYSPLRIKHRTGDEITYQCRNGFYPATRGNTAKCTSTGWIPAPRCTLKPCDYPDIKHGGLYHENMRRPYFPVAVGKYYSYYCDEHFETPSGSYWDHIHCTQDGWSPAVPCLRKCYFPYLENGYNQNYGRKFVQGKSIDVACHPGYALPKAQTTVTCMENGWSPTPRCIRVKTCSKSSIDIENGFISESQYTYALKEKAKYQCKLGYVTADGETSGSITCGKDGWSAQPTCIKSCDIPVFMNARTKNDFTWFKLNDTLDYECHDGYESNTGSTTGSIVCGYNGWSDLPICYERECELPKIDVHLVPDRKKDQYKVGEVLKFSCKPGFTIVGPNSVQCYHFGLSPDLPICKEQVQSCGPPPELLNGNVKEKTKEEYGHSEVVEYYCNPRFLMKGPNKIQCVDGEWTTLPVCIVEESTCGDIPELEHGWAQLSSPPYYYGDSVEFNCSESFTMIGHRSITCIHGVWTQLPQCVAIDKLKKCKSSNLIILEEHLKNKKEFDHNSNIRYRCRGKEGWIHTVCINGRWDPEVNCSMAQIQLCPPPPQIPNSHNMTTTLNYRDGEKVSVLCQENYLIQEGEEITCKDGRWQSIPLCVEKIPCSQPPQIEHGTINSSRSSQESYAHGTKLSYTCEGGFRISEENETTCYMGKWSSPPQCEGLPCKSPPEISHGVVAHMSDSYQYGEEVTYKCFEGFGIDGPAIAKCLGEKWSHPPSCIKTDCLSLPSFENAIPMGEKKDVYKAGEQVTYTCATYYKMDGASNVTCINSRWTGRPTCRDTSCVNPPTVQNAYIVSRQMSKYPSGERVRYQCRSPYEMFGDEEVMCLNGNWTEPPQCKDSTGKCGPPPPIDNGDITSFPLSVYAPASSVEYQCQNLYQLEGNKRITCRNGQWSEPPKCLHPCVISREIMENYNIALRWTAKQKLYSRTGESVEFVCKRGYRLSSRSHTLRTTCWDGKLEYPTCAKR
elongation factor Tu (EF-Tu) of M. hyopneumoniae strain 168, endogenous (natural protein), sequence (Q4A7K0 whole entry): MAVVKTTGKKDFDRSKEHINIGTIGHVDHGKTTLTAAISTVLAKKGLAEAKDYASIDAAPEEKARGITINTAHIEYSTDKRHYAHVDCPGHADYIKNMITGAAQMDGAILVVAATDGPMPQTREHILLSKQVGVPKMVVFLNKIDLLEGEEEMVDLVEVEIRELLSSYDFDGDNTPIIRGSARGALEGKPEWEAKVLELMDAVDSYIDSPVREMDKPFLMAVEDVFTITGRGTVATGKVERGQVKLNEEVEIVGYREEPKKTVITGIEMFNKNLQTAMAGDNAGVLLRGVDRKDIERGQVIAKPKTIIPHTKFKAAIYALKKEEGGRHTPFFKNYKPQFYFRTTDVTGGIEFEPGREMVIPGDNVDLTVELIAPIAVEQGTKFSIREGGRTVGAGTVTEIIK
elongation factor Tu (EF-Tu) of M. hyopneumoniae strain 168, endogenous (M. hyopneumoniae (endogenous in strain 168)), sequence (Q4A7K0 whole entry): as above
recombinant full-length EF-Tu of M. hyopneumoniae, sequence (Q4A7K0 whole entry): as above
human factor H, sequence (P08603 19-1231): as the sequence (P08603 19-1231) above

## elongation factor Tu (EF-Tu) of M. hyopneumoniae strain 168, endogenous (natural protein)
[1]
  binding of M. hyopneumoniae cells to factor H immobilised on 96-well plates (qPCR count) after preincubation with anti-EF-Tu polyclonal antibodies against preimmune serum: 47.7%

## human factor H (from UniProt P08603 19-1231) (natural protein)
[2]
  C3 fragment deposition on M. hyopneumoniae cells by flow cytometry, anti-EF-Tu antibodies against preimmune sera, with factor H: 8 fold

## recombinant full-length EF-Tu of M. hyopneumoniae (from UniProt Q4A7K0 1-402) (natural protein; other documents disagree on this pair)
[3]
  Kd: 7.83 µM
